# Source: the nanobody polyreactivity screen of Harvey et al. (2022)
# Assay: yeast display, Sf9 membrane polyspecificity reagent, FACS + sequencing; frameworks hold sequencing errors
# Procedure, shortened: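 Using colony PCR, genes from sorted yeast display clones were amplified, then sequenced on MiSeq at 2 × 250 and filtered by CDR length. The clones had been stained with 10% biotinylated, detergent-solubilized Sf9 membrane reagent for 1 hour at 4 °C and sorted by FACS into low and high (top ~1%) gates on anti-HA and streptavidin fluorescence. Polyreactivity labels come from the gate of origin.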
row,Sequence,polyreactivity (PSR sort gate)
1,QDQLVESRGVLVQAGGTLRLSCAASGSTFVYYVMGWYRQAPVKERELVAAISWSDDSTYYADSVKGRFTISRDNAKNTVYLQMNSLIPVDTAVYYCAATGYPFYTSGDIEYYYWGQGTQVTVSS,low polyreactivity
2,QVHLVESGGGLVQAGGSLRLSCAASGSIFGTNALGWYRQAPGKERELVAAINWSGGTTYYADSVKGRFTISRDNAKNTVYLQMNTLKPEDTAVYYCATFFFVLPPTRFDSWGQGTQVTVSS,low polyreactivity
3,QLQLVESVGGVVQPGGSLRLSSAASGSNFRYYAIGWYRQAPGKERELVAAINWSGGSTYYADSVKGRVTISRDNAKNTVYLQMNSLKPEDTAVYYWAASWYYCRRYDYWGQGTQVTVSS,high polyreactivity
4,QVQLVESGGGLVQAGGSLRLSCAASGLTFVYYAMGWYRQAPGKERELVAAISESGTSTYYADSVKGRFTISRDNAKNTVYLQMNSLKPEDTAVYYCAAKDSYYEMDYWGQGTQVTVSS,high polyreactivity
5,QVQLVESGGGLVQAGGSLRLSCAASGRTIYYNAIGRYIQAPVKEREFVATITCSGGSTYADSVKGRFTISRDNAKNTVYLQMNSLKPEDTAVYYCNADFSYTSEDQRALFTNVYYWGQGTQVTVSS,low polyreactivity
6,QVQLVESGGGLLQAGGSLRLSCAASGRTFKYYAMGWYRQAPGKERELVAAISHSGGSTYYADSVKGRFTISRDNAKNTVYLQMNSLKPEDTAVYYCAADHGDGNYPYYYWGQGTQVTVSS,high polyreactivity
7,QVQLVESGGGLVQAGGSLRLSCAASGRTFGYNAMGWYRKAPGKEREFVAAISWSGGRTYYADSVKGRFTISRDNAKNTVYLQMNSLKPEDTAVYYCAAGFGDGPGNGYYTRYSWDDDYWGQGTQVTVSS,low polyreactivity
8,QVHLVESGGGLVQAGGSLRLRCAASGIIYVRYAMGWYRHAPGKERELVAAISWSGGSTYYADSVKGRFTISRDNAKNTVYLQMNSLKPEDTAVYYCAADSHRTRGYARYFYWGQGTQVTVSS,high polyreactivity
9,QVQLVESGGGLVQAGGSLRLSCAASGSIFDTNAMGWYIQAPGKEREFVGTITNSGGRTYYADSVKGRFTISRDNAKNTVYLQMNSLKPEDTAVYYCNADVHRFSGNGYRYYYWGQGTQVTVSS,low polyreactivity
10,QVQLVESGGGLVQAGGSLRLSCAASGGIFYDYTMGWYRQAPGKERELVAVISSSGSTYYADSVKGRFTISRDNAKNTVYLLMNSLKPEDTAVYYCNALGWYGDYDYWGQGTQVTVSS,low polyreactivity
11,QVQLVESGGGLVQAGGSLRLSCAASGRIFAWYSMGWYRQAPGEERELVAGISWICGSTYNADSVKGRFTISRDNAKNTVYLQMNSLKPEDTAVYYCNARKKPGSLLDIIGYDYWGQGTQVTVSS,low polyreactivity
12,QVQLVESGGGLVQAGGSLRLSCAASGYIFPPYAMGWYRQAPGKERELVATMTGIGGSTDYADSVKGRFTISRDNAKNTVYLQMNSLKPEDTAVYYCAARRDGYGTHYDYWGQGTQVTVSS,low polyreactivity
13,QVQLVESGGGLVQAGGSLRLSCAASGITFVYYAMGWYRQAPGKERELVAGIDWSGGSTYYADSVKGRFTISRDNAKNTVYLQMNSLKPEDTAVYYCAAEFWLSTDFYYWGQGTQVTVSS,high polyreactivity
14,QVQLVESGGGLVQAGGSLRLSCAATGSIFNFYAMGWYRQAPGKERELVAAIDQNGGSTYYADSVKGRFTISRDNAKNTVYLQMNSLKPVDTAVYYCAKDHQSGRRTYTYRYDYWGQGTQVTVSS,low polyreactivity
15,QVQLVESGGGLVQAGGSLRLSCAASGRIFGVYVMGWYRQAPGKERELVAAISWSGSHTYYADSVKGRFTISRDNAKNTVYLQMNSLKPEDTAVYYCNADSSPEYTGPGLDWYDYWGQGTQVTVSS,low polyreactivity
16,QVQLVESGGGLVQAGGSLRLSCAASGSIFSGNAMGWYRPAPGKGRELVAGSSRRGGRTYYADSVKGRFTISRDNAKNTVYIPMNSLKPEDPAVYYCNKDVFGDTREYDYWGQGTQVTVSS,high polyreactivity
17,QVQLVESGGGLVQVGGSLRLSCAASGRTVWWYAMGWYRQAPGKERELVAAISRGSTNYADSVKGRFTISRDNAKNTVYLQMNSLKPEDTAVYYCNAVSLYQSHDYDYWGQGTQVTVSS,low polyreactivity
